B1: OKT4: anti-CD4 humanized OKT4 bDS Fab, SEQ ID NO: 74 and 75 (antibody)
heavy: EVQLVESGGGLVQPGGSLRLSCAASGFTFSNYAMSWVRQAPGKRLEWVSAISDHSTNTYYPDSVKGRFTISRDNAKNTLYLQMNSLRAEDTAVYYCARKYGGDYDPFDYWGQGTLVTVSSASTKGPSVFPLAPSSKSTSGGTAALGCLVKDYFPEPVTVSWNSGALTSGVHTCPAVLQSSGLYSLSSVVTVPSSSLGTQTYICNVNHKPSNTKVDKKVEPKSSDKTHTCHHHHHH
light: DIQMTQSPSSLSASVGDRVTITCQASQDINNYIAWYQHKPGKGPKLLIHYTSTLQPGIPSRFSGSGSGRDYTLTISSLQPEDFATYYCLQYDNLLFTFGGGTKVEIKRTVAAPSVFIFPPSDEQLKSGTASVVCLLNNFYPREAKVQWKVDNALQSGNSQESVTEQDSKDSTYSLCSTLTLSKADYEKHKVYACEVTHQGLSSPVTKSFNRGES
B2: V1: anti-CD7 Nanobody, SEQ ID NO: 80 (protein)
VHH: DVQLQESGGGLVQAGGSLRLSCAVSGYPYSSYCMGWFRQAPGKEREGVAAIDSDGRTRYADSVKGRFTISQDNAKNTLYLQMNRMKPEDTAMYYCAARFGPMGCVDLSTLSFGHWGQGTQVTVSITGGGCHHHHHHHH
B3: 12D2: anti-CD3 12D2 bDS Fab, SEQ ID NO: 84 and 85 (antibody)
heavy: EVKLVESGGGLVQPGRSLRLSCAASGFNFYAYWMGWVRQAPGKGLEWIGEIKKDGTTINYTPSLKDRFTISRDNAQNTLYLQMTKLGSEDTALYYCAREERDGYFDYWGQGVMVTVSSASTKGPSVFPLAPSSKSTSGGTAALGCLVKDYFPEPVTVSWNSGALTSGVHTCPAVLQSSGLYSLSSVVTVPSSSLGTQTYICNVNHKPSNTKVDKKVEPKSSDKTHTCGGHHHHHH
light: QFVLTQPNSVSTNLGSTVKLSCKRSTGNIGSNYVNWYQQHEGRSPTTMIYRDDKRPDGVPDRFSGSIDRSSNSALLTINNVQTEDEADYFCQSYSSGIVFGGGTKLTVLSQPKAAPSVTLFPPSSEELQANKATLVCLVSDFYPGAVTVAWKADGSPVKVGVETTKPSKQSNNKYAACSYLSLTPEQWKSHRSYSCRVTHEGSTVEKTVAPAESS
B4: TRX2 ScFv: anti-CD8 TRX2 ScFv, SEQ ID NO: 98 (protein)
scFv: QVQLVESGGGVVQPGRSLRLSCAASGFTFSDFGMNWVRQAPGKGLEWVALIYYDGSNKFYADSVKGRFTISRDNSKNTLYLQMNSLRAEDTAVYYCAKPHYDGYYHFFDSWGQGTLVTVSSGGGGSGGGGSGGGGSGGGGSDIQMTQSPSSLSASVGDRVTITCKGSQDINNYLAWYQQKPGKAPKLLIYNTDILHTGVPSRFSGSGSGTDFTFTISSLQPEDIATYYCYQYNNGYTFGQGTKVEIKGGGSGGCGGHHHHHH

System: human CD3 T cells
Assay: Transfection of human CD3 T cells (CD8 and CD4 subsets) with Fab/Nb-targeted LNPs
Type: cell-based
Settings: targeted Lipid 8 LNP (Lipid 5 in Example 43), GFP mRNA approximately 2.5 μg/mL, approximately 24 hr
Procedure: LNPs were prepared using the mixing process described in Example 6, the buffer exchange process described below in Example 21. Using methods similar to Example 12, hSP34 and TRX2 Fab-lipid conjugates and a non-T cell specific anti-HER2 lipid-conjugate (Nellis D F, Ekstrom D L, Kirpotin D B, Zhu J, Andersson R, Broadt T L, Ouellette T F, Perkins S C, Roach J M, Drummond D C, Hong K, Marks J D, Park J W and Giardina S L (2005) Preclinical manufacture of an anti-HER2 scFv-PEG-DSPE, liposome-inserting conjugate. 1. Gram-scale production and purification. Biotechnol Prog 21:205-220) were post-inserted at various densities (SP34 0.25-17 g/mol; TRX2 0.25-9 g/mol; SP34+TRX2 0.25-9 g/mol each conjugate; anti-HER2 17 g/mol) into LNPs containing Lipid 8 and anti-CD20 targeting CART mRNA. Transfections were performed with human CD3 T cells at approximately 2.5 μg/mL mRNA for approximately 24 hr. For FACS analysis T cells were stained with M1 antibody (Sigma, F3040) that bind a N-terminus FLAG-tag variant sequence on the TTR-023 CAR (sequence provided below) in addition to staining for CD69 (Biolegend, 310930) and CD4 (Biolegend, 344648) to differentiate CD8 from CD4 cells.
LNPs were prepared using the mixing process described in Example 6, the buffer exchange process described in Example 21. Using methods similar to Example 12, hSP34, TRX2, and Ibalizumab Fab-lipid conjugates and a non-T cell specific anti-HER2 lipid-conjugate were post-inserted at various densities (specified in FIGS. 20A and 20B into LNPs containing Lipid 8 and Cy5/GFP mRNA. Transfections were performed with human CD3 T cells at approximately 2.5 μg/mL mRNA for approximately 24 hr and stained for CD69 (Biolegend, 310930) and CD4 (Biolegend, 344648) to differentiate CD8 from CD4 cells by FACS analysis.
LNPs were prepared using the mixing process described in Example 6, the buffer exchange process described in Example 21. Conjugates were generated using a method similar to that of Example 4 except 0.025, 0.1, 0.5 mM TCEP was used for hSP34 DS, 0.025, 0.2, 2 mM TCEP was used for hSP34-hlam NoDS (interchain disulfide knockout) for reduction prior to conjugation and the conjugation reactions were performed at 37 C for 2 hr. SDS-PAGE (FIGS. 65A, 65B) was performed using the manufacturers recommended conditions with 1 ug of protein (Thermo, 4-12% Bis-Tris MiniGel). RP-HPLC (FIGS. 65C, 65D) was performed using an Agilent 300 SB-C8 at 0.5 mL/min with a column temperature of 60° C., Mobile Phase A: Water with 0.1% TFA, Mobile Phase B: Acetonitrile with 0.1% TFA, Gradient % B: 0 min 5%, 1 min 5%, 6.5 min 95%, 8 min 95% injecting 10 ul with a target of 1-25 ug of protein. Using methods similar to Example 12, ant-CD3 hSP34 (with and without natural interchain disulfide, DS (with interchain disulfide) vs. NoDS (without interchain disulfide), see sequences below) PEG-lipid conjugated Fabs were post-inserted at various Fab densities (6, 12, 17 g Fab/mol total lipid) into LNPs containing Lipid 8 and Cy5/GFP mRNA. Transfections were performed with human CD3 T cells at approximately 2.5 μg/mL mRNA for approximately 24 hr. Levels of transfection of CD3 T cells was measured by flow cytometry.
LNPs were prepared using the mixing process described in Example 6, the buffer exchange process described in Example 21. Conjugates were generated using a method similar to that of Example 4 except 0.1 mM TCEP was used for reduction prior to conjugation and the conjugation reaction was performed at 37 C for 2 hr. […]

Molecule	% GFP transfection and GFP expression (MFI) of CD8 and CD4 T cells, in words
B1	highly specific LNP transfection and protein translation of CD4+ T cells versus CD8+ T cells
B2	3.4K PEG mediated higher transfection and expression than the 5K PEG
B3	can efficiently transfect both CD8 and CD4 T cell subsets
B4	slightly lower % transfection (FIG. 82A) and GFP expression levels (FIG. 82B) in the CD8 T cell subset relative to the anti-CD8 TRX2 NoDS Fab
